The results in this text go back to article PMC9753473 (The EMBO Journal, 2022).

The chains are these.
B5: Chlamydomonas reinhardtii IFT74(128‐C) (domain or fragment, UniProt Q6RCE1 128-641, looked up)
chain: GVGRQVLDKNYFMNELRQKRMEIAQVTSNMKSDLEALERKQAQYNSMDKRASDLSKEVKILQEALADYNTVLDKVGSQAPVYVIQQEFAALKDRNEQQRKRVDEVLTERLNLESKAKQAESKMSEIQASMDQRLNSMPPSQRNEYTTLVAEQQQLQADSKRFEEVLDELDKALQASEGELARNPFKQRSLQLQEQIRALTEKKYELTEEERQSKRSPEELRADLMAKIKRDNTEVEQMTQQIRELQDQIKKMEERVKSLGGATSGAAAAEEKANREKFEELLAKERDLNNFMDGFPSRKAAKMQEKQQKEDGIVGVLEKMVKMQGIIGSNLPSQKKYKEMQDELEYKKMQLENTQTTQERLKEELTMRRTELEKIDTLEDKIKLELTQLAERQEAMEKEMGEFGSVEDIQRKANAARERMEGLRSVLLKRKDLLRSIVAERGLKFQAKRAQLQDHNLQVQLEKMEAKLKNLSAGVFEMDEFIKAKESETNYRQLASNIAALVDDLNVHVKKAVV

Experiment [1] addresses T1, Chlamydomonas reinhardtii IFT81/74(128‐C) heterodimer (Chlamydomonas reinhardtii, UniProt Q68RJ5 1-683; Q6RCE1 128-641).
T1 sequence (looked up) 1: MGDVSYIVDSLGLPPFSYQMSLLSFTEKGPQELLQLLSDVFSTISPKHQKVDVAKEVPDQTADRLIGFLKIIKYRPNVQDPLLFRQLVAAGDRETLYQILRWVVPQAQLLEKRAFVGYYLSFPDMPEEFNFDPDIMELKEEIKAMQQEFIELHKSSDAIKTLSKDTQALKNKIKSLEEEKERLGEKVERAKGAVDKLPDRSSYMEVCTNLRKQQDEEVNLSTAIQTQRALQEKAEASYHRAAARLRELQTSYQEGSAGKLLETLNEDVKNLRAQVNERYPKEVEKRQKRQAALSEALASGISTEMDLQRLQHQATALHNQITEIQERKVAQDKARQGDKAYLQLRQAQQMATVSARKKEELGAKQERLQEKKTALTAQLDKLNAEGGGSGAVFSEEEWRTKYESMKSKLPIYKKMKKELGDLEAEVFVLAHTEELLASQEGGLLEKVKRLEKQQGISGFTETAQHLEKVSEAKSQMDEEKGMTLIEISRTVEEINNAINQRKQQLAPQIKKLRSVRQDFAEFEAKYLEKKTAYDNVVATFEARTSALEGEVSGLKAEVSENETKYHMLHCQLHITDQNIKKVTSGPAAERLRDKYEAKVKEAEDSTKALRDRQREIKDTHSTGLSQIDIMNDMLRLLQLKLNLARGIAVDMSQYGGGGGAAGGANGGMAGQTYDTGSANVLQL
T1 sequence (looked up) 2: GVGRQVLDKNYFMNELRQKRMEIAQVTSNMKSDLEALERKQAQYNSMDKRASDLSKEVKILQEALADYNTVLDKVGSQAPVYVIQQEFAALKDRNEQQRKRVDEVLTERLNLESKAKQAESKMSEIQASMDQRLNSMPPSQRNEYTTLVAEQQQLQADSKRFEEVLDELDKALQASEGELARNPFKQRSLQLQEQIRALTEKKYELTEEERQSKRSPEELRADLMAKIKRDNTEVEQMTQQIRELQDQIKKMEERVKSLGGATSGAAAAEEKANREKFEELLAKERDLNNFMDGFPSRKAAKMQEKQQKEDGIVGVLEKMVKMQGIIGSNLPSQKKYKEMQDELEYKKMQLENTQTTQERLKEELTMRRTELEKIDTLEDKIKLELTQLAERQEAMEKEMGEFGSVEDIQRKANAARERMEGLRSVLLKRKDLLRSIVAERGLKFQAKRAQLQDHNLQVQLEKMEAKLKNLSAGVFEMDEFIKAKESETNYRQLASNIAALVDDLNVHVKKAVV
The experiment can be described thus: cross-linking.

The target of experiment [2] is T2, Chlamydomonas reinhardtii IFT81 (Chlamydomonas reinhardtii, UniProt Q68RJ5 1-683).
T2 sequence (looked up): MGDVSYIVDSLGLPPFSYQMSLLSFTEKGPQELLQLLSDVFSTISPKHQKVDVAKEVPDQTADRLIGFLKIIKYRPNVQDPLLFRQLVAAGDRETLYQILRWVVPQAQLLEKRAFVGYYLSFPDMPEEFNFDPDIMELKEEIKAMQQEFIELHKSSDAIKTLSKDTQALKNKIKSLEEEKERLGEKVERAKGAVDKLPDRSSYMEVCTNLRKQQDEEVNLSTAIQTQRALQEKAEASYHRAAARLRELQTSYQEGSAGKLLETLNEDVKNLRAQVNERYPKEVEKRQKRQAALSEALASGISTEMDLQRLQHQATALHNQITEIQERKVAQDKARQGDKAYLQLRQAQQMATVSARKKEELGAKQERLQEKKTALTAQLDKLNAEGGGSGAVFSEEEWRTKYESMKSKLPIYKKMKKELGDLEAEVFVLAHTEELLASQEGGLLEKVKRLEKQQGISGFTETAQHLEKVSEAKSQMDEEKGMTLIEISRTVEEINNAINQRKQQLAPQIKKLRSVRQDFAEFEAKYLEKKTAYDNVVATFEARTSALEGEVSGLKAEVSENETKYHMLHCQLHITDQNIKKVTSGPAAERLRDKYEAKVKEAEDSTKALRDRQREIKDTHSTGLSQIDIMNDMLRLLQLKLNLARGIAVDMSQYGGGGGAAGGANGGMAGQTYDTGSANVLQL
The experiment in a line: cross-linking.

Experiment [3] concerns the target B5. The experiment can be described thus: cross-linking.
For the next experiment, the target named is T3, CrIFT172(1–968) (Chlamydomonas reinhardtii, UniProt Q5DM57 1-968).
T3 sequence (looked up): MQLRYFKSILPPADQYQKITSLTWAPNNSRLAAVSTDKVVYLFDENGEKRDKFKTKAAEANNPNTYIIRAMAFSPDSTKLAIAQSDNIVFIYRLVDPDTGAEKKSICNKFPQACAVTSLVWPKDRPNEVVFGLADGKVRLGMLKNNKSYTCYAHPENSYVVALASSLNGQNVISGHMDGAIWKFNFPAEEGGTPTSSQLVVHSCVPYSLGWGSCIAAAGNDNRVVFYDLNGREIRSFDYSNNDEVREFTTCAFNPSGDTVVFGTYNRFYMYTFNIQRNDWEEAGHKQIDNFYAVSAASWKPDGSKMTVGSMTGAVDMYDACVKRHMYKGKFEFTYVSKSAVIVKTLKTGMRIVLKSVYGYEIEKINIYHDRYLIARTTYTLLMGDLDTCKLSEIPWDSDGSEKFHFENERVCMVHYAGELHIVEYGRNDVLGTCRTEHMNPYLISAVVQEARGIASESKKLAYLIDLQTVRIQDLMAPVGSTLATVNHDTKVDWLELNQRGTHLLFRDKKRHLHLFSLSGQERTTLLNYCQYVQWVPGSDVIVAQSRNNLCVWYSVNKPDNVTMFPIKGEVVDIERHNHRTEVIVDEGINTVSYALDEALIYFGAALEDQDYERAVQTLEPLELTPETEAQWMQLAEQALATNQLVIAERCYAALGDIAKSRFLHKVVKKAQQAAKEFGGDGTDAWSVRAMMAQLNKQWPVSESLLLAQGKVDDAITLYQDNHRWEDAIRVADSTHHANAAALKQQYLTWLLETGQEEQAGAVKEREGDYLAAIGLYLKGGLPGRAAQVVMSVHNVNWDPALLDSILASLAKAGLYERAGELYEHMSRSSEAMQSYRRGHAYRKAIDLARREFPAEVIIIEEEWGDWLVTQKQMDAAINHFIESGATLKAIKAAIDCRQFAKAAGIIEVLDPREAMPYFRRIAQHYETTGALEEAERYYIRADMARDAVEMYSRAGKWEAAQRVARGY
The experiment can be described thus: pull-down.

B1: Chlamydomonas reinhardtii IFT27 (natural protein)
chain: MVKKEVKPIDITATLRCKVAVVGEATVGKSALISMFTSKGSKFLKDYAMTSGVEVVVAPVTIPDTTVSVELFLLDTAGSDLYKEQISQYWNGVYYAILVFDVSSMESFESCKAWFELLKSARPDRERPLRAVLVANKTDLPPQRHQVRLDMAQDWATTNTLDFFDVSANPPGKDADAPFLSIATTFYRNYEDKVAAFQDACRNY
As for B1, the binding result in experiment [1] is “binds”.

B2: Chlamydomonas reinhardtii IFT46(188–319) (domain or fragment, UniProt A2T2X4 188-319, looked up)
chain: QLRQLSKEAPGAKADMVGRLEHTDENKAKKIQQWIASINDIHKAKPAATVNYSKRMPEIEALMQEWPPEVETFLKTMHMPSGDVELDIKTYARLVCTLLDIPVYDDPVESLHVLFTLYLEFKNNPIFRQHME
B2: the binding result in experiment [2] and in experiment [3] was “binds” throughout.

B3: GST‐tagged CrIFT57(1–234) (domain or fragment, Chlamydomonas reinhardtii, UniProt Q2XQY7 1-234, looked up)
chain: MSSKRGGRSSLAKAPEEAVNGEAFAPEASPPPPGDDGDAGGEDGGAPAPPPPPATKGGPVAVGRSLEIQTTPDVCMEMLADKLKLLNYEADFCRKKKPYRKPLSRLYFAVPLANSSEQFFYFTSLATWLLGLAGVELPAPKEFDDPNLTCQNILGAVKKLGFAPPSYHPTKLTVGNGKEVVGVLDGLVDFVLERRHHKYSRPAYGNDGQPEEGVQLDDEAEAAAMEGADELAMP
On to B3, for which, in the experiment with CrIFT172(1–968), the binding result is reported as “binds”.

B4: Chlamydomonas reinhardtii IFT25(1–136) (domain or fragment, UniProt B8LIX8 1-136, looked up)
chain: MKDYAREENGGLVVMASCSDERFPPENMLDGKDNTFWVTTGMFPQEFVLRLESCIRVSKITTLSLNVRKLAVEKCDQDKPDQFEKVFEVELANRGDRLQTEVHQVNIRAKYLKFILLQGHGEFATVNRVSVVGGDD
For B4, in experiment [1], the binding result is “binds”.
In the case of B5, the binding result in experiment [2] is on record as “binds”.
